Data from patent US20190309065A1.

Target: human PD-L1 (human) (UniProt Q9NZQ7)
Assay: cell-based or functional assay

UniProt Q9NZQ7, sequence (Q9NZQ7 19-290): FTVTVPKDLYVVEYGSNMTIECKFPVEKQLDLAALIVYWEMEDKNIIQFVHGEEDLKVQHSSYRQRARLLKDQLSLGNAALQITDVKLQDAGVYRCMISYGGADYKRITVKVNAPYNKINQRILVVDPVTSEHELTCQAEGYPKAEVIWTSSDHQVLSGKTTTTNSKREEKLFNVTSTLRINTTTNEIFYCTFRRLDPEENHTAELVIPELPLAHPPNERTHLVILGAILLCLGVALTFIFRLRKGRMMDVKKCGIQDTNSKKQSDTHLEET

B1: monoclonal antibody to human PD-L1, clone 29E.2A3 (mouse IgG2b) (antibody, from another filing, V domains shown)
VH: EVQLQQSGPELVKPGASVKMSCKASGYTFTSYVMHWVKQKPGQGLEWIGYVNPFNDGTKYNEMFKGKATLTSDKSSSTAYMELSSLTSEDSAVYYCARQAWGYPWGQGTLVTVSA
VL: DIVLTQSPASLAVSLGQRATISCRATESVEYYGTSLVQWYQQKPGQPPKLLIYAASSVDSGVPARFSGSGSGTDFSLTIHPVEEDDIAMYFCQQSRRVPYTFGGGTKLEIK
fold increase in B*4201 TL9 tetramer+ CD8 T cells, 6-day CFSE proliferation assay of PBMC with TL9 peptide plus anti-PD-L1 blocking antibody (peptide alone: 4.8-fold): 10.3 fold | percentage of B*4201 TL9-specific CD8 T cells after 6-day stimulation with peptide, in the presence of anti-PD-L1 blocking antibody (without it: 5.7%): 12.4%
